Data on 6 molecules can be found in US6468532 (Genentech, dated 2002).

Experiment in all cases: cell-based or functional assay
The target in one assay is human monomeric IL-8 (human).
Assay [1] deals with T1, recombinant human IL-8, (ser-IL-8)72 (human, UniProt P10145 28-99).
T1 sequence (looked up): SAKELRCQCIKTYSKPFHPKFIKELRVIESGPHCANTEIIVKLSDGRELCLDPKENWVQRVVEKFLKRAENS

In the next assay the target is T2, rabbit IL-8 (rabbit, UniProt P19874 23-101, limits assumed).
T2 sequence (looked up): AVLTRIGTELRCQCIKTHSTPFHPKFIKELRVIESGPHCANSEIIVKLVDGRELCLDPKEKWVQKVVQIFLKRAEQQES

The target of the next assay is T3, rhesus IL-8 (rhesus, UniProt P67813 23-101, limits assumed).
T3 sequence (looked up): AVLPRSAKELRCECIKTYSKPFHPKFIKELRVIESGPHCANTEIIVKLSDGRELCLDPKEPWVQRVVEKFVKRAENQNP

B1: 6G4V11N35A F(ab')2 (GCN4 leucine zipper construct) (other)
light: DIQMTQSPSSLSASVGDRVTITCRSSQSLVHGIGATYLHWYQQKPGKAPKLLIYKVSNRFSGVPSRFSGSGSGTDFTLTISSLQPEDFATYYCSQSTHVPLTFGQGTKVEIKRTVAAPSVFIFPPSDEQLKSGTASVVCLLNNFYPREAKVQWKVDNALQSGNSQESVTEQDSKDSTYSLSSTLTLSKADYEKHKVYACEVTHQGLSSPVTKSFNRGEC
heavy: not shown
Consider B1, for which the “average IC50, IL-8 mediated neutrophil chemotaxis” value came to 1 nM with human monomeric IL-8 and 4 nM with rabbit IL-8. Besides, the “average IC50, human IL-8 mediated neutrophil chemotaxis” value in assay [1] is 1.5 nM.

B2: humanized 6G425 F(ab)-9 (humanized 6G4V11 Fab) (Fab, V domains shown)
VH: EVQLVQSGGGLVQPGGSLRLSCAASGYSFSSHYMHWVRQAPGKGLEWVGYIDPSNGETTYNQKFKGRFTLSRDNSKNTAYLQMNSLRAEDTAVYYCARGDYRYNGDWFFDVWGQGTLVTVSS
VL: DIQMTQSPSSLSASVGDRVTITCRSSQSLVHGIGNTYLHWYQQKPGKAPKLLIYKVSNRFSGVPSRFSGSGSGTDFTLTISSLQPEDFATYYCSQSTHVPLTFGQGTKVEIKR
For the molecule B2, the figures for the “IC50, IL-8 mediated neutrophil chemotaxis” value with human monomeric IL-8 and in the assay with rhesus IL-8 were around 15 nM and around 22 nM, respectively.

B3: 6G4V11N35A Fab' modified with 40 kD linear PEG-maleimide (Fab, V domains shown)
VH: EVQLVQSGGGLVQPGGSLRLSCAASGYSFSSHYMHWVRQAPGKGLEWVGYIDPSNGETTYNQKFKGRFTLSRDNSKNTAYLQMNSLRAEDTAVYYCARGDYRYNGDWFFDVWGQGTLVTVSS
VL: DIQMTQSPSSLSASVGDRVTITCRSSQSLVHGIGATYLHWYQQKPGKAPKLLIYKVSNRFSGVPSRFSGSGSGTDFTLTISSLQPEDFATYYCSQSTHVPLTFGQGTKVEIKR
modifications: 40 kD linear methoxy-PEG-maleimide on the free cysteine in the hinge region
For the molecule B3, the “IC50, IL-8 mediated PMN chemotaxis” value in assay [1] turned out to be 3.7 nM.

B4: humanized 6G425 F(ab)-8 (Fab, V domains shown)
VH: EVQLVESGGGLVQPGGSLRLSCAASGYSFSSHYMHWVKQAPGKGLEWVGYIDPSNGETTYNQKFKGRFTLSRDNSKNTAYLQMNSLRAEDTAVYYCARGDYRYNGDWFFDVWGQGTLVTVSS
VL: DIQMTQSPSSLSASVGDRVTITCRSSQSLVHGIGNTYLHWYQQKPGKAPKLLIYKVSNRFSGVPSRFSGSGSGTDFTLTISSLQPEDFATYYCSQSTHVPLTFGQGTKVEIKR
With B4, the “IC50, IL-8 mediated neutrophil chemotaxis” value in the assay with rhesus IL-8 turned out to be 10 nM; in assay [1], 12 nM.

B5: 6G4V11N35A Fab (Fab, V domains shown)
VH: EVQLVQSGGGLVQPGGSLRLSCAASGYSFSSHYMHWVRQAPGKGLEWVGYIDPSNGETTYNQKFKGRFTLSRDNSKNTAYLQMNSLRAEDTAVYYCARGDYRYNGDWFFDVWGQGTLVTVSS
VL: DIQMTQSPSSLSASVGDRVTITCRSSQSLVHGIGATYLHWYQQKPGKAPKLLIYKVSNRFSGVPSRFSGSGSGTDFTLTISSLQPEDFATYYCSQSTHVPLTFGQGTKVEIKR
For the molecule B5, the “average IC50, IL-8 mediated neutrophil chemotaxis” value with human monomeric IL-8 was 1 nM. In assay [1], the “IC50, IL-8 mediated PMN chemotaxis” value came out at 0.8 nM and the “average IC50, human IL-8 mediated neutrophil chemotaxis” value was 2.7 nM. Moreover, the “average IC50, IL-8 mediated neutrophil chemotaxis” value with rabbit IL-8 amounted to 5 nM.

B6: full length 6G4V11N35A IgG1 (antibody, V domains shown, not shown: a dimerising Fc or GST)
VH: EVQLVQSGGGLVQPGGSLRLSCAASGYSFSSHYMHWVRQAPGKGLEWVGYIDPSNGETTYNQKFKGRFTLSRDNSKNTAYLQMNSLRAEDTAVYYCARGDYRYNGDWFFDVWGQGTLVTVSS
VL: DIQMTQSPSSLSASVGDRVTITCRSSQSLVHGIGATYLHWYQQKPGKAPKLLIYKVSNRFSGVPSRFSGSGSGTDFTLTISSLQPEDFATYYCSQSTHVPLTFGQGTKVEIKR
Turning to B6, the “IC50, IL-8 mediated human neutrophil chemotaxis” value (in assay [1]; in the assay with rabbit IL-8) was 4 nM each time.
